Results from PMC10713829.

How the values were obtained:
[1] = target: HLA-A*01:01/hβ2m complex (empty, peptide-free or peptide-receptive) (human); assay: differential scanning fluorimetry
[2] = target: HLA-A*01:01/hβ2m complex (empty, peptide-free or peptide-receptive) (human); assay: NMR titration
[3] = target: HLA-A*01:01/hβ2m complex (empty, peptide-free or peptide-receptive) (human); assay: fluorescence polarisation

With ILDTAGKEEY [NRAS_(55-64) Q61K peptide (…)] the reduction in the population of empty HLA-A*01:01 after 0.5 h with peptide [1] was 50%, the half-life of peptide association (t1/2) [2] was less than 3.7 h and the IC50 [3] was 260 nM.
